Experimental data published in patent US20180246080A1, “METHODS USING AXL AS A BIOMARKER OF EPITHELIAL-TO-MESENCHYMAL TRANSITION” (BERGEN TEKNOLOGIOVERFORING AS, priority 2009, published 2018).

B1: shAxl279: ineffective human Axl-targeting shRNA, SEQ ID NO: 3, used as control (nucleic acid, listed as Homo sapiens)
chain: GCTTCAGGCGATTTCCCCGGCGTTGGATCCCTGGTCGGATCCAACGCCGGGGAAATCGCCTGAAGC
B2: shAxl2: human Axl-targeting shRNA, SEQ ID NO: 1, expressed from retroviral vector (nucleic acid, listed as Homo sapiens)
chain: GACATCCTCTTTCTCCTGCGAAGCCCATCTGGTCATGGGCTTCGCAGGAGAAAGAGGATGTC

How the values were obtained:
Axl = assay: FACS analysis of Axl expression in epi-allelic MDA-MB-231 cell series; type: cell-based, human; conditions: MDA-MB-231/GFP-Luc cells
From the text: All shRNAs were expressed from a modified human U6 promoter in the LTR of the retroviral vectors RRI-Red/L087 (Genbank: EU424173) used to transform MDA-MB-231 cells via retroviral infection. RRI-Red also expresses Puro2AmRed1 resulting in puromycin resistance and red fluorescence in successfully transformed cells. All Axl cDNA nucleotides are numbered as in Genbank: BC032229.
The MDA-MB-231 cells were trypsinated using standard procedures and washed in PBS-0.2% BSA before staining with anti-Axl (#MAB154, R&D Systems) at a final concentration of […] in PBS-0.2% BSA for 40 minutes at room temperature. Cells were washed twice in PBS-0.2% BSA) and incubated with secondary antibody (Goat anti-mouse APC (Allophyocyanin, crosslinked, Molecular Probes) at a final concentration of 0.2 mg/ml for 30 minutes at room temperature in the dark. Cells were washed twice with PBS-2% BSA and resuspended in […] PBS-0.2% BSA before analysis on a FacsCalibur Flow Cytometer (BD Biosciences). […]
The strong correlation of Axl expression in early breast carcinomas with poor survival indicates an important role for Axl in overall disease pathogenesis. As breast cancer-related mortality invariably results from complications of metastatic disease, we assessed whether Axl expression was required for malignant breast carcinoma cell invasiveness. […]

mouse Axl = assay: Flow cytometry of mouse Axl surface expression in 4T1-GFP-Luc cells; type: cell-based; conditions: 4T1 cells, retroviral shRNA expression
Protocol: The MDA-MB-231 cells were trypsinated using standard procedures and washed in PBS-0.2% BSA before staining with anti-Axl (#MAB154, R&D Systems) at a final concentration of […] in PBS-0.2% BSA for 40 minutes at room temperature. Cells were washed twice in PBS-0.2% BSA) and incubated with secondary antibody (Goat anti-mouse APC (Allophyocyanin, crosslinked, Molecular Probes) at a final concentration of 0.2 mg/ml for 30 minutes at room temperature in the dark. Cells were washed twice with PBS-2% BSA and resuspended in […] PBS-0.2% BSA before analysis on a FacsCalibur Flow Cytometer (BD Biosciences). Data analyses were carried out using the FlowJo software (Tree Star, Inc., Ashland, Oreg., USA).
In order to validate our results in a different metastatic model we transduced the highly metastatic mouse breast carcinoma 4T1 cell line with the CSI-construct and selected for GFPluciferase expression by FACS (4T1-GFP-Luc). […] A mismatched human Axl-targeting shRNA (shAxl279) had no effect on mouse Axl expression.

MDA-MB-231-D3H2LN cells = assay: Mammary fat pad spontaneous metastasis model, bioluminescence imaging; type: in vivo, NOD-SCID mice
Protocol: BLI was performed using a eXplore Optix (GE Healtcare) camera mounted in a specimen box. Imaging and quantification of signals was done using eXplore Optix software. For in vivo imaging, animals received via intraperitoneal injection (i.p) the substrate D-luciferin (Biosynth), 150 mg/kg in PBS (Phosphate Buffered Saline) and anesthetized with isoflurane. Mice were placed into warmed stage inside of camera box with continuous exposure to 1-2% isoflurane and imaged for different views depending on the tumor model. Region of interest were identified and were quantified as total photon/sec-1 using eXplore Optix software (GE Explore Optix). In vivo background bioluminescence was in the range of 2-3×10 photon counts. […]
Subline of human MDA-MB-231 cells (called MDA-MB 231 DH3L2N—Xenogen) which express GFP-Luc biomarker and different RNAs interference that regulate Axl expression were injected into mammary pad of mice. […] Tumor growth and metastasis spread was monitored every second week by bioluminescent imaging for up to 9 weeks. […]
In order to evaluate the requirement of Axl for breast cancer metastasis, we orthotopically injected MDA-MB-231-D3H2LN, a rapidly growing and highly metastatic in vivo MDA-231 isolate, into the mammary fat pad. Using whole body bioluminescent imaging we temporally monitored spontaneous metastasis development over a 9-week period. […]

MDA-MB-231/GFP-Luc cells = assay: Tissue engineered tricellular tumor implants (MDA-MB-231, EC, SMC) in scaffolds; type: in vivo, NOD-SCID mice
From the text: 1×10^6 MDA-MB 231 cells which express GFP-Luc biomarker and different RNAs interference that regulate Axl expression, were suspended in a 1:1 mixture of F-12 Kaighn's (Invitrogen) :Matrigel (BD Biosciences) and seeded in 6×6 mm Poly-lactic acid (PLLA) scaffolds.
Females NOD/SCID/B2mnull were anesthetized by exposure to 1-2% isoflurane (Isoba vet.-Schering-Plough A/S) during the implantation procedure and on subsequent imaging days. Two scaffolds were implanted subcutaneously (s.c) in each mouse according to Nor et al. Lab Invest.; 81 (4) 453; 2001 Scaffolds with cells that express Axl were implanted on the left side of each mouse while on the right side scaffolds with cells in which Axl was knockdown. After the surgical procedure, anesthetized mice were placed in Imaging System and imaged for both left and right sides 10-15 min after intraperitoneal injection of 150 mg/kg D-luciferin (Biosynth). Tumor development was monitored in vivo once a week by imaging for 4 weeks.
For tricellular implant MDA-MB-231 cells infected with shRNA vectors and GFP-Luc were mixed with Human dermal microvascular endothelial cells (HMVEC), and pulmonary artery smooth muscle cells (PASMC) in ratio of 1:2:2. Tumor growth was monitored weekly in vivo by imaging for 4 consecutive weeks.
To ascertain whether Axl influences the ability of breast cancer cells to attract and co-opt blood vessels, we developed a tri-cellular implant approach comprising MB-MDA-231 cells seeded together with primary human microvascular endothelial (HuMVEC) and vascular smooth muscle cells (vSMC) to create tumor vasculature. Implants of human EC-vSMC cells readily form perfused intrascaffold human microvasculature in NOD-SCID mice within a two-week period (Hegen et al., in preparation). […] The engineered human tumor vasculature is evenly distributed and perfused with intralumenal red blood cells. In contrast, Axl knockdown, blocked tumor formation, without affecting development of a perfused human microvasculature.

Molecule | Axl knockdown efficacy (Axl-targeting shRNA) (Axl) | mouse Axl surface levels (mouse Axl) | Overall survival (MDA-MB-231-D3H2LN cells; orthotopically injected MDA-MB-231-D3H2LN/GFP-Luc cells, P=0.013 log-rank test vs control) | Spontaneous metastasis (MDA-MB-231-D3H2LN cells; whole body bioluminescent imaging over 9 weeks) | Intrascaffold vessel diameter (MDA-MB-231/GFP-Luc cells; excised tumors, 28 days) | Microvascular density (MDA-MB-231/GFP-Luc cells; excised tumors, 28 days) | Tissue engineered tumor growth (MDA-MB-231/GFP-Luc cells; tricellular implants, in vivo imaging)
B1 | ineffective | had no effect | – | – | – | – | –
B2 | – | – | significantly increased | no metastases were detected | unaffected | slightly enhanced | inhibited
